Test results from the Human Domainome abundance scans (Beltran et al. 2025).
± gives the uncertainty stated by the source.

B1: Serine/threonine-protein kinase LATS1, residues 98 to 141; numbered along this chain, O95835 (parent)
chain: TSEVNPQMLQDLQAAGFDEDMVIQALQKTNNRSIEAAIEFISKM

Variants of: B1
Assay: abundance fitness (aPCA) (normalised: wild type 0, dead -1); higher = more abundant; growth selection in yeast, the domain comes from the species named
Conditions: Homo sapiens

Point of comparison: TSEVNPQMLQDLQAAGFDEDMVIQALMKTNNRSIEAAIEFISKM, abundance fitness -0.123 ± 0.044. Against it:
- TSEVNPQMLQDLQAAGMDEDMVIQALQKTNNRSIEAAIEFISKM — lower, -0.336 ± 0.061
- TSEVNPQMLQDLQAAGTDEDMVIQALQKTNNRSIEAAIEFISKM — lower, -0.609 ± 0.052
- TSESNPQMLQDLQAAGFDEDMVIQALQKTNNRSIEAAIEFISKM — lower, -0.444 ± 0.038
- TSEVNPQMLQDLQAAGFDEDMVIQRLQKTNNRSIEAAIEFISKM — lower, -0.768 ± 0.046
- TSEVNPQMLQDLQAAGFDEDMVIQLLQKTNNRSIEAAIEFISKM — lower, -0.802 ± 0.057
- TSRVNPQMLQDLQAAGFDEDMVIQALQKTNNRSIEAAIEFISKM — lower, -0.202 ± 0.035
- TSPVNPQMLQDLQAAGFDEDMVIQALQKTNNRSIEAAIEFISKM — within error, -0.079 ± 0.049
- TSEVNPQMLQDLQAAGFDEDMVIQALQKTNNRTIEAAIEFISKM — lower, -0.555 ± 0.063
- TLEVNPQMLQDLQAAGFDEDMVIQALQKTNNRSIEAAIEFISKM — lower, -0.219 ± 0.035
- TDEVNPQMLQDLQAAGFDEDMVIQALQKTNNRSIEAAIEFISKM — within error, -0.082 ± 0.058
- TFEVNPQMLQDLQAAGFDEDMVIQALQKTNNRSIEAAIEFISKM — within error, -0.108 ± 0.085
- TSEVNPQMLQDMQAAGFDEDMVIQALQKTNNRSIEAAIEFISKM — within error, -0.119 ± 0.081
- TSEVNPQMLQDWQAAGFDEDMVIQALQKTNNRSIEAAIEFISKM — lower, -0.951 ± 0.057
- TSEVNPQMLQDIQAAGFDEDMVIQALQKTNNRSIEAAIEFISKM — lower, -0.364 ± 0.077
- TSEVNPQMLQDLQAAGFDEDMVIQALEKTNNRSIEAAIEFISKM — within error, -0.041 ± 0.042
- TSEVNPQMLQDLQAAGFDEDMVIQALQKTNNRSIEAAIEFIVKM — lower, -0.219 ± 0.035
- TSEVNPQMLQDLQAAGFDEDMVIQALQKFNNRSIEAAIEFISKM — lower, -1.09 ± 0.16
- TSEVNPQMLQDLQAAGFDEDMVIQALQKGNNRSIEAAIEFISKM — lower, -0.527 ± 0.033
- TSEVNPQMLQDLQAMGFDEDMVIQALQKTNNRSIEAAIEFISKM — higher, 0.103 ± 0.062
- TSEVNPQMLQDLQAYGFDEDMVIQALQKTNNRSIEAAIEFISKM — within error, -0.181 ± 0.07
- TSEVNPQMLQDLQAAGFDEDMVIQALQKTNNYSIEAAIEFISKM — within error, -0.222 ± 0.18
- TSEVNDQMLQDLQAAGFDEDMVIQALQKTNNRSIEAAIEFISKM — higher, 0.007 ± 0.066
- TSEVNNQMLQDLQAAGFDEDMVIQALQKTNNRSIEAAIEFISKM — higher, 0.249 ± 0.096
- TSEVGPQMLQDLQAAGFDEDMVIQALQKTNNRSIEAAIEFISKM — lower, -0.653 ± 0.04
- TSEVVPQMLQDLQAAGFDEDMVIQALQKTNNRSIEAAIEFISKM — lower, -0.716 ± 0.065
- TSEVWPQMLQDLQAAGFDEDMVIQALQKTNNRSIEAAIEFISKM — lower, -0.828 ± 0.066
- TSEVNPQMLQTLQAAGFDEDMVIQALQKTNNRSIEAAIEFISKM — within error, -0.048 ± 0.05
- TSEVNPQMLQDLQAAGFDEDMVIQALQKTLNRSIEAAIEFISKM — lower, -1.14 ± 0.097
- TSEVNPQMLQDLQAAGFDEMMVIQALQKTNNRSIEAAIEFISKM — within error, -0.168 ± 0.046
- TSEVNPQMLQDLQAAGFDEDMVIQALQCTNNRSIEAAIEFISKM — within error, -0.129 ± 0.05
- TSEVNPQMLQDLQAAGFDEDMVIQALQKTNNRSIEAAIEPISKM — within error, -0.157 ± 0.055
- TSEVNPQMLQDLQAAGFDEDMVIQALQKTNNRSIEAAIEAISKM — higher, -0.018 ± 0.035
- TSEVNPQMLQDLQCAGFDEDMVIQALQKTNNRSIEAAIEFISKM — lower, -0.325 ± 0.053
- TSEVNPQMLCDLQAAGFDEDMVIQALQKTNNRSIEAAIEFISKM — lower, -0.225 ± 0.053
- TSEVNPQMLQDLQAAGFDSDMVIQALQKTNNRSIEAAIEFISKM — within error, -0.035 ± 0.045
- TSEVNPQMLQDLQAAGFDGDMVIQALQKTNNRSIEAAIEFISKM — within error, -0.103 ± 0.035
- TSEVNPQMLQDLQAAGFDEDMVIQALQKTNNRSIECAIEFISKM — within error, -0.169 ± 0.041
- TSEVNPQMAQDLQAAGFDEDMVIQALQKTNNRSIEAAIEFISKM — higher, 0.004 ± 0.049
- TSEVNPQMKQDLQAAGFDEDMVIQALQKTNNRSIEAAIEFISKM — higher, 0.136 ± 0.05
- TSEVNPQMWQDLQAAGFDEDMVIQALQKTNNRSIEAAIEFISKM — lower, -0.649 ± 0.066
- TSEVNPQMLQDLQAAGFDEDEVIQALQKTNNRSIEAAIEFISKM — higher, 0.043 ± 0.044
- TSEVNPQMLQDLQAAGFDEDWVIQALQKTNNRSIEAAIEFISKM — lower, -0.32 ± 0.044
- TSEVNPQMLQDLQAAGFDEDVVIQALQKTNNRSIEAAIEFISKM — higher, 0.059 ± 0.037
- TSEVNPQMLQDLQAAGFDEDMVIQALQKTNNRSIEAAIEFISSM — higher, -0.035 ± 0.042
- TSEVNPQMLQDLQAAGFDEDMVIQALQKTNNRSIEAAIEFISEM — higher, 0.133 ± 0.042
- TSEVNPQMLQDLQAAGFDEDMVIQALQKTNNRSIEAAIEFISDM — within error, -0.03 ± 0.05
- TSEVNPQMLQDLQAAGFDEDMVIQALQKTNNRSCEAAIEFISKM — higher, -0.02 ± 0.043
- TSEVNPQMLQDLQAAGFDEDMVIQALQKTNNRSIEASIEFISKM — lower, -0.441 ± 0.05
- TSEVNPQMLQDLQAAGFDEDMVIQALQKTNQRSIEAAIEFISKM — lower, -0.63 ± 0.089
- TSEVNPQMLQDLQAAGFDEDMVIQALQKTNNRSIEAAIEFNSKM — lower, -0.429 ± 0.23
- TSEVNPQMLQDLQAAGFDEDMVIQALQKTNNRSIEAAIEFRSKM — lower, -0.361 ± 0.031
- ISEVNPQMLQDLQAAGFDEDMVIQALQKTNNRSIEAAIEFISKM — within error, -0.079 ± 0.056
- FSEVNPQMLQDLQAAGFDEDMVIQALQKTNNRSIEAAIEFISKM — within error, -0.032 ± 0.23
- SSEVNPQMLQDLQAAGFDEDMVIQALQKTNNRSIEAAIEFISKM — higher, 0.021 ± 0.04
- QSEVNPQMLQDLQAAGFDEDMVIQALQKTNNRSIEAAIEFISKM — within error, -0.062 ± 0.1
- TSEVNPQMLQDLQAAGFDEDMVIQALQKTNNRSIEAALEFISKM — within error, -0.078 ± 0.037
- TSEVNPQMLQDLQAAGFDEDMVIQALQKTNNRSIEAAQEFISKM — higher, -0.021 ± 0.048
